Substitutions are numbered along the chain they refer to.

The target in series [1] is T1, HEN1 wt (Arabidopsis thaliana, UniProt Q9C5Q8 1-942).
T1 sequence: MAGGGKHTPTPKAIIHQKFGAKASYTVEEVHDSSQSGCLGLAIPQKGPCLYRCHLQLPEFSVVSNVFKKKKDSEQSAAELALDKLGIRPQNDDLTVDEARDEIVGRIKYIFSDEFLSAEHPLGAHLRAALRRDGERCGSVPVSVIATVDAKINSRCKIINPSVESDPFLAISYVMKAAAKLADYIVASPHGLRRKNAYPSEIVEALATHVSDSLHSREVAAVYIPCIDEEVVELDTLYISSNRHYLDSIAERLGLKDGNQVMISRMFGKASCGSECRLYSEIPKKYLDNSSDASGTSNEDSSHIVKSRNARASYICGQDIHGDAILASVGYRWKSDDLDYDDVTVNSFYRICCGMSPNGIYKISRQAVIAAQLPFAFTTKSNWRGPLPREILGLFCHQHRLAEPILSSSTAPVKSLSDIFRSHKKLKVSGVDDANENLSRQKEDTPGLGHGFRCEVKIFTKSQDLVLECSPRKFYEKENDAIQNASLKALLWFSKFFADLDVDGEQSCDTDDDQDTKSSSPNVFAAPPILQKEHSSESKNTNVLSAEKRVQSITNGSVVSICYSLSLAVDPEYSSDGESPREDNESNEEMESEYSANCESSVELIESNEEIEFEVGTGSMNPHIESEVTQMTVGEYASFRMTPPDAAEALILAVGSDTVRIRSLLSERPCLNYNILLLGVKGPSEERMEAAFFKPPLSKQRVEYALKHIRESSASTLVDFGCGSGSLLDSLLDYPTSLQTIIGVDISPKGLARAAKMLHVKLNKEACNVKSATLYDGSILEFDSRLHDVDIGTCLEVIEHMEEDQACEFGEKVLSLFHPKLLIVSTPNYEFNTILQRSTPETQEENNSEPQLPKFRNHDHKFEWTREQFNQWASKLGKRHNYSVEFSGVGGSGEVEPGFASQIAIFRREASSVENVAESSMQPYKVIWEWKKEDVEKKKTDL
The series can be described thus: EMSA. On the technique in general: In EMSA bound probe runs differently from free probe, usually more slowly.

Series [2] deals with T2, HEN1-RHK389,397,477AAA (Arabidopsis thaliana, UniProt Q9C5Q8 1-942, R389A;H397A;K477A).
T2 sequence: T1 sequence with R389A, H397A, K477A
Put plainly: EMSA.

B1: miR173/miR173* (dsRNA)
RNA 1: UUCGCUUGCAGAGAGAAAUCAC
RNA 2: GAUUCUCUGUGUAAGCGAAAG
In general, Kd refers to the equilibrium constant for the complex coming apart. Low values mean tighter binding, high ones weaker binding. Turning to B1, the dissociation constant Kd in series [1] was found to be 0.43 ± 0.05 nM; in series [2], 302 ± 29 nM.
